Substrate in data set [1]: N[C@@H](CC1(C(=O)O)C=CC(O)C=C1)C(=O)O
Kind of data set: TyrA arogenate dehydrogenase kinetics and tyrosine inhibition (340 nm). It is filed as biochemical, Brachypodium distachyon. As to conditions: other: NADP^+, pH 7.5, 37° C. An excerpt: (§1) Next, to study the biochemical properties of grass TyrA enzymes, we generated and characterized recombinant purified TyrA proteins from Brachypodium (BdTyrA) and Sorghum (SbTyrA), two distantly related grass species^43, 44. Whereas TyrA enzymes from dicot plants are generally NADP^+-dependent arogenate dehydrogenases^20, 39, 45, except for NADP^+-prephenate dehydrogenases in the legume family^40, 46, previous reports on the substrate preference of grass TyrA enzymes are inconclusive^17, 19. […] NAD^+-prephenate dehydrogenase activity was absent in all cases, ruling out a significant contamination of the enzyme preparations with the TyrA enzyme from E. coli^47.48.

Substrate in data set [2]: N[C@@H](CC1(C(=O)O)C=CC(O)C=C1)C(=O)O
The data set is described as above. It is filed as biochemical, Sorghum bicolor. Conditions: other: NADP^+, pH 7.5, 37° C.
Description: as §1

The record followed here is US20250115926A1, “DEREGULATED DHS AND TYRA ENZYMES OF GRASSES ENABLE EFFICIENT PRODUCTION OF BOTH TYROSINE AND PHENYLALANINE” (priority 2023, published 2025).

B1: Brachypodium distachyon BdTyrAnc (non-canonical TyrA), SEQ ID NO: 37, recombinant (Brachypodium distachyon) (protein)
chain: AEQEQKQEVAAPCRDAYEKPAVWNTTAADSAEAAPPLRVGIIGFGNFGQFIARGIQRQGHAVLATSRSDYSAYCSAQGIRYFRSLEALCEEQPNVLLVCSSILSTEAVVRAIPFHKLRSDTIVADVLSVKQFPRNLLLEILPPEFGIVCTHPMFGPESGKHGWSTLPFVYDKVRLADKGDQKANCGQFLSIFEGEGCRMVEMSCAEHDRHAAASQFITHTIGRVLAQLNLKSTPINTKGFEALLKLTENTVSDSFDLYYGLFMYNVNATEQIEKLERAFEKVKQMLYGRLHDILRKQIVERVPI
notes: from cDNA
Turning to B1, in data set [1], the Michaelis-Menten constant (Km) came to 130 ± 40 µM, the kcat was found to be 76.5 ± 5.5 s⁻¹ and the kcat/Km was 580000 ± 24300 M⁻¹ s⁻¹.

B2: Sorghum bicolor SbTyrA1, SEQ ID NO: 39, recombinant (Sorghum bicolor) (protein)
chain: MLSSSTSTLRLHQPTRPHRHHPPAPAAGGATHLASPRRWRGHAPGASSPPALRARAQRIRALDAAQPFDFESRAAGLLEERQRLKIAIVGFGNFGQFLARTFARQGHTLLAHSRTDHSALASTLGASFFTDPHDLCECHPDVVLLATSILSAEAVLRSLPVHRLRRNTLFVDVLSVKEFPRNLLLSSLPPDFDVICTHPMFGPESARDGWDGLPFVFDKVRVGDCPARRARAEAFLNIFEREGCRMVEMSCAEHDAHAAETQFLTHTVGRMLAMLELRSTPINTKGYETLLRLVDNTCSDSFDLYNGLFMYNKNSTELLNRVEWAMDSVKKKLFDGLHDVLRKQLFEGSPHAPNVSSSNVRK
notes: from genomic DNA
Consider B2, for which, in data set [2], the Michaelis-Menten constant (Km) turned out to be 570 ± 150 µM, the catalytic constant (kcat) is 2.9 ± 0.6 s⁻¹ and the kcat/Km stood at 5300 ± 800 M⁻¹ s⁻¹.

B3: Brachypodium distachyon BdTyrA2, SEQ ID NO: 35, recombinant (Brachypodium distachyon) (protein)
chain: RATDAARQPFDHLSGAVKSEEGTHPRLKIAIVGFGNYGQFLARTMVQQGHTVLAHSRSDHSAAAATIGASFYADAHDLCECQPDVVLLSTSILSAEAVLRSLPVHRFRRSTLFADVLSVKEFPKNLLLAYLPGDFDVICTHPMFGPESARDGWAGLPFVFDEVRVGDGPARRARADAFLDVFAREGCRMVEMSCAEHDAHAAETQFLTHTVGRMLATLDLKSTPINTKGYETLLRLVDNTCSDSFDLYNGLFMYNNNATELLHRLESAMDSVKRRLFDGLHEVLRRQLFEGSPPLNRDSSFPAESSLDDGR
Consider B3, for which, in data set [1], the Km stood at 450 ± 40 µM, the kcat was determined as 18.5 ± 0.6 s⁻¹ and the kcat/Km is 41200 ± 1700 M⁻¹ s⁻¹.

B4: Sorghum bicolor SbTyrAnc (non-canonical TyrA), SEQ ID NO: 43, recombinant (Sorghum bicolor) (protein)
chain: ALTSPSPVEQHLQAVVPCHGISDPPAASSAAAVPAAPLRVGIVGFGNFGQFIAGGLQRQGHVVLAASRSDYSVYCASHGIRFFRSVDALCEEQPDVLLICSSILSTEGVVRAIPFRKLRHDTIVADVLSVKEFPRNLLLEVLPPGFGIICTHPMFGPESGKHGWGKLPFVFDKVRVAEDGDQAAKCDQFLSIFEQEGCRMVEMSCAEHDRYAAGSQFITHTIGRVLSQLNLKSTPINTKGYETLLQLTKNTVSDSFDLYYGLFMYNVNATEQLDKLEMAFEKVRQMLSGRLHDFIRKQIVERAAHVPADPSGKLANGLSSSPAARLL
notes: from cDNA
As to B4, in data set [2], the Km came out at 220 ± 60 µM, the kcat was determined as 73.5 ± 18.2 s⁻¹ and the catalytic efficiency (kcat/Km) came out at 338000 ± 19500 M⁻¹ s⁻¹.

B5: Sorghum bicolor SbTyrA2, SEQ ID NO: 41, recombinant (Sorghum bicolor) (protein)
chain: ATGASQPLGTDSNEEVEKVEEQPQPPPRLKIAVVGFGTFGQFLARTLVAQGHTVLAHSRSDHSAAAASMGALFFSDPHDLCECHPDVVLLATSILSAESVVRSLPLHRLRRDTLFADVLSVKEFPKRLLLGLLPEEMDILCTHPMFGPESARAGWAGLPFMFDKVRVRDTVPARRARAEAFLDVFAQEGCRMVEMSCAEHDAHAAETQFLTHTVGRMLAALELRATPIDTRGYETLLRLVENTCSDSFDLYNGLFMYNNNSTELLNRLDWAMDAVKRRLFDGLHDVLRRQLFHVGEVEGEAERMEELAVVPGGGPDTDDDGCATATATSIKSGEENN
notes: from genomic DNA
With B5, in data set [2], the Km was 2130 ± 530 µM, the kcat came out at 38.5 ± 8.8 s⁻¹ and the kcat/Km is 18100 ± 9600 M⁻¹ s⁻¹.

B6: Brachypodium distachyon BdTyrA1, SEQ ID NO: 33, recombinant (Brachypodium distachyon) (protein)
chain: MLSSSTSHLRLHQPSRAARRLPPAPAPATYQFQSPASRRSLPAPAVGARIRPNRGGTIRAIDAAQPFDYESRAAGLLEERQRLKIAIVGFGNFGQFLARTFARQGHTLLAHSRSDHSSLAASLGAAYFQDPHDLCECHPDVVLLATSILSAEAVLRSLPVHRLRRNTLFVDVLSVKEFPKNLLLTTLPEGFDIICTHPMFGPESARDGWDGLPFVFDKVRVGDCPARRARADTFLNIFEREGCRMVEMSCAEHDAHAAETQFLTHTVGRMLATLELQSTPINTKGYETLLRLVDNTCSDSFDLYNGLFMYNKNSTDLLNRLESAMDSVKKRLFDGLHDVLRKQLFEGKASPPATSSNTKSDVHRGQLLLEGKASPAPLNANNTTVRN
notes: from genomic DNA
In the case of B6, in data set [1], the Michaelis constant (Km) was found to be 1410 ± 240 µM, the catalytic constant (kcat) was found to be 5.2 ± 0.8 s⁻¹ and the catalytic efficiency (kcat/Km) was 3600 ± 800 M⁻¹ s⁻¹.

By Km is commonly meant the concentration of substrate that gives half-maximal velocity. One may read the kcat as the number of substrate molecules converted per active site and unit of time at saturation. As usually defined, the kcat/Km is the turnover number divided by the Michaelis constant.
